The source of these data is patent publication US20150098990A1.

Assay [1] has as its target mouse dorsal root ganglion (DRG) neurons (surface proteins that the peptides bind are not identified) (mouse (C57BL/6)). As to the kind of experiment: phage binding to cultured DRG neurons, anti-fd immunostaining, confocal microscopy.
The target is the same in assay [2]. As to the kind of experiment: double staining of isolated DRG neurons incubated with DRG-p1 and GST-DRG3, antibodies against phage and GST.
The target is the same in assay [3]. As to the kind of experiment: synthetic peptide DRG1 at 10^-4 M; competitor phage DRG-p1 on cultured DRG neurons, anti-fd immunostaining.
Assay [4] shares this target. As to the kind of experiment: synthetic peptide DRG1 at 10^-6 M; competitor phage DRG-p1 on cultured DRG neurons, anti-fd immunostaining.
Assay [5] shares this target. As to the kind of experiment: synthetic peptide DRG2 at 10^-4 M; competitor phage DRG-p2 on cultured DRG neurons, anti-fd immunostaining.
Assay [6] has the same target. As to the kind of experiment: synthetic peptide DRG2 at 10^-6 M; competitor phage DRG-p2 on cultured DRG neurons, anti-fd immunostaining.
Assay [7] has the same target. The experiment in a line: synthetic peptide DRG3 at 10^-4 M; competitor phage DRG-p3 on cultured DRG neurons, anti-fd immunostaining.
For assay [8] the target is unchanged. The experiment in a line: synthetic peptide DRG3 at 10^-6 M; competitor phage DRG-p3 on cultured DRG neurons, anti-fd immunostaining.

“phage clone DRG-p1 (M13 phage displaying the DRG1 peptide SPGARAF on pIII)” yielded a percent of DRG neurons bound in assay [1] of 38%. The percent of GST-DRG3-positive neurons with double positive staining in assay [2] is 71%.

“phage clone DRG-p3 (M13 phage displaying the DRG3 peptide FGQKASS on pIII)” came in with a percent of DRG neurons bound in assay [1] of 29%.

Turning to “phage clone DRG-p2 (M13 phage displaying the DRG2 peptide DGPWRKM on pIII)”, the percent of DRG neurons bound in assay [1] amounted to 43%.

With SPGARAF [synthetic peptide DRG1: SPGARAF], the values for the percent of anti-phage staining blocked in assay [3] and in assay [4] were 97% and 47%, respectively.

As to DGPWRKM [synthetic peptide DRG2: DGPWRKM], the percent of anti-phage staining blocked in assay [5] turned out to be 94%; in assay [6], 54%.

Take FGQKASS [synthetic peptide DRG3: FGQKASS]: the percent of anti-phage staining blocked in assay [7] is 94%; in assay [8], 53%.
